The values below come from patent publication US20070231333A1, “ANTI-5T4 ANTIBODIES AND USES THEREOF” (Wyeth, priority 2006, published 2007).

For test [1], the target named is T1, human 5T4 antigen (Homo sapiens, UniProt Q13641).
T1 sequence (Q13641 32-420): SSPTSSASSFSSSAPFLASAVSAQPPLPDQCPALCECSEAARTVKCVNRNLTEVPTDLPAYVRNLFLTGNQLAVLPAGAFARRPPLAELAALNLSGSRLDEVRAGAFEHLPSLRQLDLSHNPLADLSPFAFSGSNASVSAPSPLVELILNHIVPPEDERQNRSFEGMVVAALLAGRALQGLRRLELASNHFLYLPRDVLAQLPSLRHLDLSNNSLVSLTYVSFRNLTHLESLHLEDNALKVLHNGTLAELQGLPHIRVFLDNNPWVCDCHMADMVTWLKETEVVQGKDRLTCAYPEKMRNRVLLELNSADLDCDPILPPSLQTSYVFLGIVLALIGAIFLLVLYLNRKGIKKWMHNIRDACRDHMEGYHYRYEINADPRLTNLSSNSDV
The test can be described thus: BIACORE analysis of antibody binding to human 5T4 antigen immobilized on a CM5 chip. The note with it: chimeric and humanized antibodies, Table 12. How it is done: To assess the binding specificity and affinity of the A1, A2, and A3 antibodies, BIACORE® analysis was performed using human 5T4 antigen immobilized on a CM5 chip. BIACORE® technology utilizes changes in the refractive index at the surface layer upon binding of the antibody to the 5T4 antigen immobilized on the layer. Binding is detected by surface plasmon resonance (SPR) of laser light refracting from the surface. Analysis of the signal kinetics on rate and off rate allows discrimination between non-specific and specific interactions. The H8 anti-5T4 antibody was used as a control. H8 is a hybridoma-generated monoclonal mouse IgG1 antibody described in PCT International Publication No. WO 98/55607 and in Forsberg et al. (1997) J. Biol. Chem. 272(19):[…].
To assess the binding specificity and affinity of the chimeric and humanized H8, A1, A2, and A3 antibodies, BIACORE® analysis was performed using human 5T4 antigen immobilized on a CM5 chip. See Example 2.

The target of test [2] is T1, human 5T4 antigen. The test can be described thus: BIACORE competition assay: second antibody after saturation with first antibody. In kind it is binding. As to the method:
Epitope mapping of the H8, A1, A2, and A3 antibodies was also performed using BIACORE® using a CM5 chip with bound human 5T4 antigen. The chip was saturated with H8, A1, A2, or A3 antibody, and a first response was measured. The chip was then saturated with a second antibody from among the H8, A1, A2, and A3 antibodies, and a second response was measured. For multiple experiments, the chip was regenerated by dissociation of the bound antibodies in 10 mM glycine, pH 1.5, followed by a buffer wash. The percentages shown are the response units measured upon binding by a second antibody directly to the CM5 chip divided by the response units measured upon binding of the second antibody to a CM5 chip saturated with a first antibody.
The epitopes bound by the H8 and A3 antibodies are sterically close to each other such that the rate of association with antigen is decreased when binding of H8 is assayed in the presence of A3, and vice versa. Similar results were obtained using the chimeric and humanized H8, A1, A2, and A3 antibodies, which were prepared as described in Example 7 herein below.

The test system of test [3] is black-tailed marmoset 5T4 ectodomain/Fc fusion protein. The test can be described thus: Cross-species reactivity ELISA, 5T4 ectodomain/Fc fusion proteins. The class given is binding. More on the design: key: +: binding; −: no binding; +/−: partial binding. How it is done: (§1) The cross-species reactivity of anti-5T4 antibodies disclosed herein was assayed to determine relevant species for in vivo efficacy studies and toxicology analysis. Correlation of binding activity and relatedness of the different 5T4 ectodomains was also used to further describe the epitope bound by each antibody. Binding assays were performed using 5T4 ectodomains from various species fused to human IgG1 Fc. To assay binding of anti-5T4 antibodies, 5T4 ectodomain/Fc fusion proteins were transiently transfected into COS-1 cells, and ELISA assays were performed. Non-relevant human IgG4 and IgG1 antibodies were used as controls.

Test [4] has as its target T2, mouse 5T4 ectodomain/Fc fusion protein (Mus musculus, UniProt Q9Z0L0).
T2 construct: prepared using mouse 5T4 (amino acids 1-361); human IgG1 Fc; made in house; host or cells: COS-1 cells (transient transfection)
T2 sequence (Q9Z0L0 32-361): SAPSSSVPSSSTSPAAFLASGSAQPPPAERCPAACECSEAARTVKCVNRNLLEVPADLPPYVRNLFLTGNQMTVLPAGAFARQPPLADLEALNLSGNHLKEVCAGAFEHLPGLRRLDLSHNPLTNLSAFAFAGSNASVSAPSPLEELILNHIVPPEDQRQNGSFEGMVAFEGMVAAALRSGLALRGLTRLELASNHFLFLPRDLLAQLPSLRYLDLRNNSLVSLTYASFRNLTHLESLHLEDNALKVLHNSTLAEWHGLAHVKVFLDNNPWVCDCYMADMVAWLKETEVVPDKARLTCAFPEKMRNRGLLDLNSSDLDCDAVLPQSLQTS
The description is as above. The class given is binding. More on the design: key: +: binding; −: no binding; +/−: partial binding. How it is done: as §1

In test [5] the target is T3, rat 5T4 ectodomain/Fc fusion protein (Rattus norvegicus, UniProt Q5PQV5).
T3 construct: rat 5T4 (amino acids 1-361); human IgG1 Fc; made in house; host or cells: COS-1 cells (transient transfection)
T3 sequence (Q5PQV5 32-361): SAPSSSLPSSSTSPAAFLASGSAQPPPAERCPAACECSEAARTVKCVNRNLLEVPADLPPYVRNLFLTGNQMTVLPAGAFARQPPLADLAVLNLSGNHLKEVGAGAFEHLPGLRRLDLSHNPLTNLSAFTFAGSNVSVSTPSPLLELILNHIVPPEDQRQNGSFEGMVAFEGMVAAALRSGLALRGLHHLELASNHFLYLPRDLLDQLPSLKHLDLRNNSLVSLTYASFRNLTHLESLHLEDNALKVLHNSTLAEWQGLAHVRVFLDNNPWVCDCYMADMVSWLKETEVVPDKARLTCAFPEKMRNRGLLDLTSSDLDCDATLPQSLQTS
The description is as above. In kind it is binding. Set-up: key: +: binding; −: no binding; +/−: partial binding. As to the method:
as §1

black-tailed marmoset 5T4 ectodomain/Fc fusion protein, sequence (as listed by the source): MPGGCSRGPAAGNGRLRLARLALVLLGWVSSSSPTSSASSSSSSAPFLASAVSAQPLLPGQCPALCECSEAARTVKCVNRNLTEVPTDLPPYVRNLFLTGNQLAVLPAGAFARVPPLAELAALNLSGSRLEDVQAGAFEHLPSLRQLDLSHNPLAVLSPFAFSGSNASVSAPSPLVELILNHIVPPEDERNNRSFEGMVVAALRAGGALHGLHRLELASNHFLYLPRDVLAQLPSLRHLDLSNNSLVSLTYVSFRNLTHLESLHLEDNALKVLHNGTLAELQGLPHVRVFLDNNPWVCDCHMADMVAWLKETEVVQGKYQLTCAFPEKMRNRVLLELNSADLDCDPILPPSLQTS

B1: chimeric A3: chimeric A3 antibody: murine A3 variable regions, human IgG4 heavy chain and human kappa light chain constant regions (antibody, V domains shown)
VH: EVQLVESGGGLVQPKGSLKLSCAASGFTFNTYAMNWVRQAPGKGLEWVARIRSKSNNYATYYADSVKDRFTISRDDSQSMLYLQMNNLKTEDTAMYCCVRQWDYDVRAMNYWGQGTSVTVSS
VL: DIVMTQSHIFMSTSVGDRVSITCKASQDVDTAVAWYQQKPGQSPKLLIYWASTRLTGVPDRFTGSGSGTDFTLTISNVQSEDLADYFCQQYSSYPYTFGGGTKLEIK
For B1, the “KA (1/M)” value with human 5T4 antigen [1] is recorded as “˜5.4 × 10^9 1/M”. The “ka (1/Ms)” value with human 5T4 antigen [1] was “˜5.4 × 10^4 1/Ms”. Further, in the test with human 5T4 antigen [1], the “kd (1/s)” value is given as “˜1.0 × 10^−5 1/s”. For the same molecule, the “Percentage of Second Antibody Bound Following Saturation With First Antibody” value in the test with human 5T4 antigen [2] (first antibody chimeric A1, 19 seconds after injection of second antibody) was 82.1%; with human 5T4 antigen [2] (first antibody chimeric A1, 37.5 seconds after injection of second antibody) it was 82.0%; in the test with human 5T4 antigen [2] (first antibody chimeric A1, 75 seconds after injection of second antibody), 84.5%; with human 5T4 antigen [2] (first antibody chimeric A1, 150 seconds after injection of second antibody), 87.8%; with human 5T4 antigen [2] (first antibody chimeric A1, 300 seconds after injection of second antibody) it was 90.8%; with human 5T4 antigen [2] (first antibody chimeric A1, 600 seconds after injection of second antibody), 92.8%. Also, the “Percentage of Second Antibody Bound Following Saturation With First Antibody” value with human 5T4 antigen [2] (first antibody chimeric A2, 19 seconds after injection of second antibody) stood at 92.2%; with human 5T4 antigen [2] (first antibody chimeric A2, 37.5 seconds after injection of second antibody), 88.6%; with human 5T4 antigen [2] (first antibody chimeric A2, 75 seconds after injection of second antibody), 89.5%; with human 5T4 antigen [2] (first antibody chimeric A2, 150 seconds after injection of second antibody) it was 91.5%; in the test with human 5T4 antigen [2] (first antibody chimeric A2, 300 seconds after injection of second antibody), 93.4%; with human 5T4 antigen [2] (first antibody chimeric A2, 600 seconds after injection of second antibody), 94.6%. Moreover, the “cross-reactivity (binding class)” value in test [3], in test [4] and in test [5] was “−” in each case.
